From patent US20200291105A1 (published 2020) come the findings set out here.

One may read the Kd as the concentration at which binding is half-saturated.

Test [1] has as its target T1, mouse IL-25 (mouse, UniProt Q8VHH8 17-169).
T1 chain: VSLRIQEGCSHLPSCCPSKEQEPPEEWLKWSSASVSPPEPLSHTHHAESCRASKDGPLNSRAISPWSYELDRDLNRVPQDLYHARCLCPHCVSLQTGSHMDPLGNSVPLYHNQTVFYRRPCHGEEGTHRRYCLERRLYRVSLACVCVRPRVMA

Test [2] concerns the target T2, recombinant human IL-25 (R&D Systems) (human, UniProt Q9H293 33-177).
T2 chain: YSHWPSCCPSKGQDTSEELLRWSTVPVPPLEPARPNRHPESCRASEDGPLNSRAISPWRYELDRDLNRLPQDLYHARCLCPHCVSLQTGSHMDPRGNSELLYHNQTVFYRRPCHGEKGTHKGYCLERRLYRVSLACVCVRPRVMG

A further test has as its target hABM125.9. Kind of test: SPR. Background: Surface plasmon resonance follows binding to a sensor surface in real time, without labels.
The target in the next test is hABM125.10. The test can be described thus: SPR.
Test [3] addresses T1, mouse IL-25. Kind of test: SPR.

Where two headings read alike, the source gives them in different places.

B1: ABM109.2 (antibody, V domains shown)
VH: QVQLVQSGAEVKKPGASVKVSCKASGYTFSSYWIEWVRQAPGQGLEWIGQILPGIGSTNYNEKFKGRVTITADTSTSTVYMELSSLRSEDTAVYYCARGYGNYGDYWGQGTTVTVSS
VL: DIVLTQSPASLAVSPGQRATITCRASESVDSYGNSFMHWYQQKPGQPPKLLIYRASNLESGVPARFSGSGSGTDFTLTINPVEAQDTANYYCQQSNEDPLTFGAGTKLELKR
Molecule B1 registered a dissociation constant Kd with mouse IL-25 [1] of 0.028 nM.

B2: ABM 109 (antibody, V domains shown)
VH: EVKVVESGADLMKPGASVKISCKATGYTFSSYWIEWVKQRPGHGLEWIGQILPGIGSTNYNEKFKGKATFTADTSSNTAYMQLSSLTSEDSAVYYCARGYGNYGDYWGQGTTVTVSS
VL: DIVLTQSPASLAVSLGQRATISCRASESVDSYGNSFMHWYQQKPGQPPKLLIYRASNLESGIPARFSGSGSRTDFTLTINPVEADDVATYYCQQSNEDPLTFGAGTKLELKR
Turning to B2, in test [2], the Kd was 0.004 nM.

B3: mouse IL-25 (NS0) (ligand)
chain: VSLRIQEGCSHLPSCCPSKEQEPPEEWLKWSSASVSPPEPLSHTHHAESCRASKDGPLNSRAISPWSYELDRDLNRVPQDLYHARCLCPHCVSLQTGSHMDPLGNSVPLYHNQTVFYRRPCHGEEGTHRRYCLERRLYRVSLACVCVRPRVMA
On to B3, for which the Kd in the test with hABM125.9 was determined as 0.733 nM; with hABM125.10 it was 1.06 nM.

B4: ABM125 (antibody, V domains shown)
VH: QVTLKVSGPGILQPSQTLSLTCSFSGFSLNTSGMGVGWIRQPSGKGLEWLAHIWWDDVKRYNPALKSRLTISKDTSGSQVFLKIASVDTADTATYYCARTLPHFFDYWGQGTTLTVSS
VL: DIQMTQSPAIMSASPGEKVTISCSASSSVSYMYWYQQKSGSSPKPWIYRTSNLASGVPARFSGSGSGTSYSLTISSMEAEDAATYYCKQYHSYPPTWTFGGGTKLEIKR
Molecule B4 gave a Kd in the test with mouse IL-25 [3] of 0.0073 nM.
